Results reported in publication PMC5123727 (International Journal of Nanomedicine, 2016).
Entries after “also recorded” stand apart in the source; their conditions may differ. Peptide text beside a SMILES is read from it. * marks the point of attachment. X1 = CCc1c2c(nc3ccc(OC(=O)[C@H]4CC[C@H](CNC(=O)[C@H]5CC[C@H](CN6C(=O)CC(*)C6=O)CC5)CC4)cc13)-c1cc3c(c(=O)n1C2)COC(=O)[C@]3(O)CC

What was measured:
[1] = Phase I plasma pharmacokinetics of DTS-108, SN-38 and SN-38G; assay type: in vivo; conditions: human, iv
[2] = Phase I dose escalation: toxicity; assay type: in vivo, human; conditions: for Other toxicities: Type of toxicity and grade: UR unrelated, R probably related
[3] = tested on: advanced or metastatic solid tumors; assay: Tumor response; assay type: in vivo, human
cardiac repolarization = assay: Cardiovascular effects: QRS and QTc intervals; assay type: in vivo, human
Solubility in water = assay type: physicochemical
[4] = dogs, 4.5–53 mg free base/kg; preclinical, ref not given; cited from earlier work
dog basophils = conditions: in vitro, preclinical, ref not given; cited from earlier work
human basophils = conditions: in vitro, preclinical, ref not given; cited from earlier work
[5] = dose 313 mg/m^2, Hyperbilirubinemia (UR)
[6] = drug-related, repeated dosing, all doses, n=42

SMILES: CCc1c2c(nc3ccc(OC(=O)[C@H]4CC[C@H](CNC(=O)[C@H]5CC[C@H](CN6C(=O)CC(SC[C@H](N)C(=O)N[C@H](C(=O)N[C@@H](CCCCN)C(=O)N[C@@H](CCCNC(=N)N)C(=O)NCC(=O)N[C@@H](CC(C)C)C(=O)N[C@@H](CCCCN)C(=O)N[C@@H](CC(C)C)C(=O)N[C@@H](CCCNC(=N)N)C(=O)N[C@@H](Cc7c[nH]cn7)C(=O)N[C@H](C(=O)N[C@@H](CCCNC(=N)N)C(=O)N7CCC[C@H]7C(=O)N[C@@H](CCCNC(=N)N)C(=O)N[C@H](C(=O)N[C@H](C(=O)N[C@@H](CCCNC(=N)N)C(=O)N[C@@H](CCSC)C(=O)N[C@@H](CC(=O)O)C(=O)N[C@H](C(=O)O)C(C)C)[C@@H](C)O)C(C)C)C(C)C)C(C)C)C6=O)CC5)CC4)cc13)-c1cc3c(c(=O)n1C2)COC(=O)[C@]3(O)CC (stereo partly drawn) [DTS-108] (H-C(X1)VKRGLKLRHVRPRVTRMDV-OH)
- Tmax ([1]; 3 mg/m2): 0.25 h
- Tmax ([1]; 6 mg/m2): 1 h
- Tmax ([1]; 12 mg/m2): 0.97 h
- Tmax ([1]; 24 mg/m2): 0.98 h
- Tmax ([1]; 32 mg/m2): 1.11 h
- Tmax ([1]; 42 mg/m2): 1.32 h
- Tmax ([1]; 56 mg/m2): 0.96 h
- Tmax ([1]; 75 mg/m2): 1.44 h
- Tmax ([1]; 100 mg/m2): 1.31 h
- Tmax ([1]; 133 mg/m2): 0.99 h
- Tmax ([1]; 177 mg/m2): 1.45 h
- Tmax ([1]; 235 mg/m2): 1.27 h
- AUC(0-inf) ([1]; 313 mg/m2): 439 µg·h/mL
- Tmax ([1]; 313 mg/m2): 1.68 h
- Tmax ([1]; 416 mg/m2): 2.47 h
- patients with Grade 3 neutropenia ([2]; 235 mg/m^2): one of four
- patients with Grade 3 neutropenia ([2]; 313 mg/m^2): four of six
- patients with no dose-limiting neutropenia ([2]; 313 mg/m^2): five of the six
- patients with Grade 3 neutropenia ([2]; 416 mg/m^2): four of six
- patients with dose reductions to 313 mg/m^2 ([2]; 416 mg/m^2): three of six
- patients with grade 4 neutropenia ([2]; 416 mg/m^2): three out of six
- patients with infusion reactions ([2]; Cohort 11, 177 mg/m^2): all three
- nephrotoxicity ([2]; all doses): no evidence of nephrotoxicity
- dose-limiting toxicity (DLT) ([2]; cycle 1): Neutropenia
- Other toxicities Grades 1–2, patients ([2]; dose 32 mg/m^2, Hyperbilirubinemia (UR)): 1
- Other toxicities Grades 1–2, patients ([2]; dose 32 mg/m^2, Respiratory and thoracic disorder (UR)): 1
- Other toxicities: Type of toxicity and grade ([2]; dose 32 mg/m^2): Respiratory and thoracic disorder (UR); also recorded: Hyperbilirubinemia (UR)
- Other toxicities Grades 1–2, patients ([2]; dose 42 mg/m^2, Retroperitoneal hematoma (UR)): 1
- Other toxicities: Type of toxicity and grade ([2]; dose 42 mg/m^2): Retroperitoneal hematoma (UR)
- Other toxicities Grades 1–2, patients ([2]; dose 56 mg/m^2, Acute pancreatitis (UR)): 1
- Other toxicities Grades 1–2, patients ([2]; dose 56 mg/m^2, Hyperbilirubinemia (UR)): 1
- Other toxicities: Type of toxicity and grade ([2]; dose 56 mg/m^2): Acute pancreatitis (UR); also recorded: Hyperbilirubinemia (UR)
- Neutropenia All grades, patients ([2]; dose 75 mg/m^2, 3 patients): 1
- Neutropenia All grades, patients ([2]; dose 100 mg/m^2, 3 patients): 1
- Other toxicities Grades 1–2, patients ([2]; dose 100 mg/m^2, Complete left lung atelectasy (UR)): 1
- Other toxicities: Type of toxicity and grade ([2]; dose 100 mg/m^2): Complete left lung atelectasy (UR)
- Neutropenia All grades, patients ([2]; dose 133 mg/m^2, 4 patients): 3
- Other toxicities Grades 1–2, patients ([2]; dose 133 mg/m^2, Hyperbilirubinemia (UR)): 1
- Other toxicities: Type of toxicity and grade ([2]; dose 133 mg/m^2): Hyperbilirubinemia (UR)
- Neutropenia All grades, patients ([2]; dose 177 mg/m^2, 3 patients): 1
- Other toxicities: Type of toxicity and grade ([2]; dose 177 mg/m^2): Vomiting (R), diarrhea (R), and nausea (R)
- Other toxicities Grades 1–2, patients ([2]; dose 177 mg/m^2, Vomiting (R), diarrhea (R), and nausea (R)): 1
- Neutropenia All grades, patients ([2]; dose 236 mg/m^2, 4 patients): 1
- Neutropenia Grades 3–4, patients ([2]; dose 236 mg/m^2, 4 patients): 1
- Other toxicities Grades 1–2, patients ([2]; dose 236 mg/m^2, Edema of lower limb (UR)): 1
- Other toxicities: Type of toxicity and grade ([2]; dose 236 mg/m^2): Edema of lower limb (UR); also recorded: Vomiting (R) and diarrhea (R)
- Other toxicities Grades 1–2, patients ([2]; dose 236 mg/m^2, Vomiting (R)): 1
- Other toxicities Grades 3–4, patients ([2]; dose 236 mg/m^2, Vomiting (R) and diarrhea (R)): 1
- Neutropenia All grades, patients ([2]; dose 313 mg/m^2, 6 patients): 6
- Neutropenia Grades 3–4, patients ([2]; dose 313 mg/m^2, 6 patients): 4
- Other toxicities Grades 3–4, patients ([2]; dose 313 mg/m^2, Diarrhea (R)): 1
- Other toxicities Grades 1–2, patients [2, 5]: 1
- Other toxicities Grades 3–4, patients [2, 5]: 1
- Other toxicities: Type of toxicity and grade ([2]; dose 313 mg/m^2): Diarrhea (R); also recorded: Hyperbilirubinemia (UR)
- Neutropenia All grades, patients ([2]; dose 416 mg/m^2, 6 patients): 6
- Neutropenia Grades 3–4, patients ([2]; dose 416 mg/m^2, 6 patients): 4
- Other toxicities: Type of toxicity and grade ([2]; dose 416 mg/m^2): Vomiting (UR), pyrexia (UR), and chills (R)
- Other toxicities Grades 1–2, patients ([2]; dose 416 mg/m^2, Vomiting (UR), pyrexia (UR), and chills (R)): 1
- Abdominal pain: Number of patients with ≥1 adverse event [2, 6]: 8
- Abdominal pain: Total (%) [2, 6]: 19.0%
- Alanine aminotransferase elevation increased: Number of patients with ≥1 adverse event [2, 6]: 5
- Alanine aminotransferase elevation increased: Total (%) [2, 6]: 11.9%
- Alopecia: Number of patients with ≥1 adverse event [2, 6]: 8
- Alopecia: Total (%) [2, 6]: 19.0%
- Anemia: Number of patients with ≥1 adverse event [2, 6]: 13
- Anemia: Total (%) [2, 6]: 31.0%
- Anorexia: Number of patients with ≥1 adverse event [2, 6]: 9
- Anorexia: Total (%) [2, 6]: 21.4%
- Ascites: Number of patients with ≥1 adverse event [2, 6]: 5
- Ascites: Total (%) [2, 6]: 11.9%
- Asthenia: Number of patients with ≥1 adverse event [2, 6]: 18
- Asthenia: Total (%) [2, 6]: 42.9%
- Constipation: Number of patients with ≥1 adverse event [2, 6]: 6
- Constipation: Total (%) [2, 6]: 14.3%
- Cough: Number of patients with ≥1 adverse event [2, 6]: 5
- Cough: Total (%) [2, 6]: 11.9%
- Diarrhea: Number of patients with ≥1 adverse event [2, 6]: 17
- Diarrhea: Total (%) [2, 6]: 40.5%
- Dyspnea: Number of patients with ≥1 adverse event [2, 6]: 9
- Hypoalbuminemia: Number of patients with ≥1 adverse event [2, 6]: 5
- Hypoalbuminemia: Total (%) [2, 6]: 11.9%
- Leukopenia: Number of patients with ≥1 adverse event [2, 6]: 6
- Leukopenia: Total (%) [2, 6]: 14.3%
- Lymphopenia: Number of patients with ≥1 adverse event [2, 6]: 7
- Lymphopenia: Total (%) [2, 6]: 16.7%
- Nausea: Number of patients with ≥1 adverse event [2, 6]: 18
- Nausea: Total (%) [2, 6]: 42.9%
- Neutropenia: Number of patients with ≥1 adverse event [2, 6]: 8
- Neutropenia: Total (%) [2, 6]: 19.0%
- Pyrexia: Number of patients with ≥1 adverse event [2, 6]: 7
- Pyrexia: Total (%) [2, 6]: 16.7%
- Rash: Number of patients with ≥1 adverse event [2, 6]: 9
- Rash: Total (%) [2, 6]: 21.4%
- Vomiting: Number of patients with ≥1 adverse event [2, 6]: 14
- Vomiting: Total (%) [2, 6]: 33.3%
- Weight decreased >10%: Number of patients with ≥1 adverse event [2, 6]: 5
- Weight decreased >10%: Total (%) [2, 6]: 11.9%
- recommended Phase II dose (RP2D) ([2]; iv 2-hour infusion every 2 weeks): 313 mg/m^2
- maximum tolerated dose (MTD) ([2]; iv every 2 weeks, patients with advanced/metastatic solid tumors): 313 mg/m^2
- objective response ([3]; 42 patients): No patient
- median progression-free survival ([3]; 95% CI 3–17 months): 11 months
- patients with stable disease status maintained for six cycles or longer ([3]; in vivo): seven
- changes in QRS morphology or interval measurements (cardiac repolarization; all doses): no clinically significant drug-related changes
- instances of postdose QTc >450 ms (cardiac repolarization; all doses): four
- instances of postdose QTc >500 ms (cardiac repolarization; all doses): no instances
- QTc at the end of dosing (cardiac repolarization; one patient, 416 mg/m^2, cycle 3, predose QTc 391 ms): 484 ms
- solubility in water (Solubility in water): highly soluble
- resolution of immediate effects resembling an infusion reaction [4]: resolved spontaneously within a few hours
- severity of immediate effects resembling an infusion reaction [4]: moderate severity
- histamine release (dog basophils): histamine release induced
- histamine release (human basophils): histamine release induced
